Laboratory results taken from publication PMC7335352.

How the values were obtained:
[1] = biological target: condensin I holocomplex (CI) (Homo sapiens, UniProt O95347;Q9NTJ3;Q15021;Q9BPX3;Q15003 1-1197;1-1288;1-1401;1-1015;1-741); assay: fluorescence polarization; no ATP; 75 mM NaCl; FP: 20 mM Tris pH 7.5, 75 mM NaCl, 2.5% glycerol, 1 mM DTT, room temp, 50 nM DNA; EMSA: 20 mM HEPES pH 8, 300 mM KCl, 5 mM MgCl2, 1 mM DTT, 10% glycerol, on ice; curtains: 40 mM Tris-HCl pH 7.5, 125 mM NaCl, 5 mM MgCl2, 1 mM DTT, 0.5 mg/mL BSA, 37 C; details: protein: recombinant; tags: 6xHis-SMC4; CAP-H 2xStrep; copies: 1;1;1;1;1; label: 6-FAM on reverse strand; blunt
[2] = biological target: condensin II holocomplex (CII) (Homo sapiens, UniProt O95347;Q9NTJ3;P42695;Q86XI2;Q6IBW4 1-1197;1-1288;1-1498;1-1143;1-605); assay: as above; details: protein: recombinant; tags: 6xHis-SMC4; CAP-H2 2xStrep; copies: 1;1;1;1;1; label: 6-FAM on reverse strand; blunt

B1: 30-bp dsDNA, 6-FAM (dsDNA)
DNA 1: CTGTCACACCCTGTCACACCTGTCACAC
DNA 2: GTGTGACAGGTGTGACAGGGTGTGACAG
Question: Which results are given for B1?
Answer: Kd [1]: 3000 ± 300 nM; Kd [2]: 1200 ± 100 nM
